Results on nine molecules are retold here after patent publication EP1674575A2 (LA JOLLA INSTITUTE FOR ALLERGY AND IMMUNOLOGY, dated 2006).

Residue numbers refer to the chain shown, from its start.

The chains are these.
T1: LTα homotrimer (UniProt P01374 35-205)
T1 construct: also called recombinant LTα; secreted LTα
T1 sequence (looked up): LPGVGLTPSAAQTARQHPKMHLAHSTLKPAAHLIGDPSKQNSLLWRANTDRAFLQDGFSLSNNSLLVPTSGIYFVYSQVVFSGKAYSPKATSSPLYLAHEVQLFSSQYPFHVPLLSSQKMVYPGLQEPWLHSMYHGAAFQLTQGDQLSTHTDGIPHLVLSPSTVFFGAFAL

T2: LTαTyr108Phe (UniProt P01374 35-205)
T2 construct: also called LTαY108F; Y108F
T2 sequence (looked up): T1 sequence (looked up) with Y108F

T3: LTα1β2 complex (LTβ 33 kDa and LTα 23-25 kDa) from detergent extracts of PMA activated II-23.D7 cells (human, UniProt P01374 35-205; Q06643 1-244)
T3 construct: Endogenous membrane complex, precipitated from detergent extracts; also called LTβ and LTα complex
T3 sequence (looked up) 1: T1 sequence (looked up)
T3 sequence (looked up) 2: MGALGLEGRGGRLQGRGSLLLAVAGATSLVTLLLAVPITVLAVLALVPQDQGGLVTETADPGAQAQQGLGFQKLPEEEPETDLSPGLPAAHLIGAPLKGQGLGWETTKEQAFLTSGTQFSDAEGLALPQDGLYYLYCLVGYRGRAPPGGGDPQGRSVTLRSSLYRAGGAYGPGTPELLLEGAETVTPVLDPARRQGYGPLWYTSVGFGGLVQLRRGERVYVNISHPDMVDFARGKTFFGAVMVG

B1: LIGHTt66-FLAG mutant Y173F (ligand, human, UniProt O43557 67-240, looked up, not shown: small tags and cut ends)
chain: EMVTRLPDGPAGSWEQLIQERRSHEVNPAAHLTGANSSLTGSGGPLLWETQLGLAFLRGLSYHDGALVVTKAGYYYIYSKVQLGGVGCPLGLASTITHGLYKRTPRFPEELELLVSQQSPCGRATSSSRVWWDSSFLGGVVHLEAGEKVVVRVLDERLVRLRDGTRSYFGAFMV
notes: range 67-240; Homotrimer, from transiently transfected 293T cells
B2: HVEM:Fc (extracellular region of HVEM, 1 to K184, fused to the Fc region of human IgG1) (Fc fusion, UniProt Q92956 39-184, looked up)
chain: LPSCKEDEYPVGSECCPKCSPGYRVKEACGELTGTVCEPCPPGTYIAHLNGLSKCLQCQMCDPAMGLRASRNCSRTENAVCGCSPGHFCIVQDGDHCAACRAYATSSPGQRVQKGGTESQDTLCQNCPPGTFSPNGTLEECQHQTK
notes: range 1-184; Bivalent chimeric protein made in baculovirus; also called huHVEM:Fc; hu HVEM:Fc; not shown: Fc region of human IgG1
B3: LIGHTt66-FLAG mutant Q117T (ligand, human, UniProt O43557 67-240, looked up, not shown: small tags and cut ends)
chain: B1 chain with Q51T, F107Y
notes: as for B1
B4: LIGHTt66-FLAG mutant L120Q (ligand, human, UniProt O43557 67-240, looked up, not shown: small tags and cut ends)
chain: B1 chain with L54Q, F107Y
notes: as for B1
B5: mouse HVEM:Fc (mouse HVEM Met1 to Ser205 fused to the Fc region of human IgG1) (Fc fusion, UniProt Q80WM9 39-205, looked up)
chain: QPSCRQEEFLVGDECCPMCNPGYHVKQVCSEHTGTVCAPCPPQTYTAHANGLSKCLPCGVCDPDMGLLTWQECSSWKDTVCRCIPGYFCENQDGSHCSTCLQHTTCPPGQRVEKRGTHDQDTVCADCLTGTFSLGGTQEECLPWTNCSAFQQEVRRGTNSTDTTCSS
notes: range 1-205; also called mHVEM:Fc; murine HVEM:Fc; not shown: Fc region of human IgG1 (printed IgC1) at the 3' end of the HVEM insert
B6: mouse LTβR:Fc (amino acid residues 1 to Met221 of the extracellular domain of mouse LTβR) (Fc fusion, UniProt P50284 31-221, looked up)
chain: QLVPPYRIENQTCWDQDKEYYEPMHDVCCSRCPPGEFVFAVCSRSQDTVCKTCPHNSYNEHWNHLSTCQLCRPCDIVLGFEEVAPCTSDRKAECRCQPGMSCVYLDNECVHCEEERLVLCQPGTEAEVTDEIMDTDVNCVPCKPGHFQNTSSPRARCQPHTRCEIQGLVEAAPGTSYSDTICKNPPEPGAM
notes: range 1-221; also called mLTβR:Fc; murine LTβR:Fc; not shown: Fc part
B7: TNFR60:Fc (Fc fusion, UniProt P19438 30-211, looked up)
chain: LVPHLGDREKRDSVCPQGKYIHPQNNSICCTKCHKGTYLYNDCPGPGQDTDCRECESGSFTASENHLRHCLSCSKCRKEMGQVEISSCTVDRDTVCGCRKNQYRHYWSENLFQCFNCSLCLNGTVHLSCQEKQNTVCTCHAGFFLRENECVSCSNCKKSLECTKLCLPQIENVKGTEDSGTT
notes: also called TNFR:Fc; soluble type I TNFR protein (TNFR:Fc); not shown: Fc region of human IgG1
B8: recombinant soluble LTα1β2 (ligand)
chain 1: T1 sequence (looked up)
chain 2: QDQGGLVTETADPGAQAQQGLGFQKLPEEEPETDLSPGLPAAHLIGAPLKGQGLGWETTKEQAFLTSGTQFSDAEGLALPQDGLYYLYCLVGYRGRAPPGGGDPQGRSVTLRSSLYRAGGAYGPGTPELLLEGAETVTPVLDPARRQGYGPLWYTSVGFGGLVQLRRGERVYVNISHPDMVDFARGKTFFGAVMVG
B9: Fas:Fc (Fc fusion, UniProt P25445 26-173, looked up)
chain: QVTDINSKGLELRKTVTTVETQNLEGLHHDGQFCHKPCPPGERKARDCTVNGDEPDCVPCQEGKEYTDKAHFSSKCRRCRLCDEGHGLEVEINCTRTQNTKCRCKPNFFCNSTVCEHCDPCTKCEHGIIKECTLTSNTKCKEEGSRSN
notes: not shown: Fc region of human IgG1

Assay [1] concerns the target B2. In words: SPR (BIAcore). (Surface plasmon resonance follows binding to a sensor surface in real time, without labels.)
In assay [2] the target is LTβR (lymphotoxin β receptor) expressed by cells (human, UniProt P36941 31-435). In words: cell-based or functional assay.
The target in assay [3] is B6. The experiment in a line: ELISA, receptor:Fc capture, anti-FLAG detection.
A further assay addresses T4, human LTβR:Fc (human, UniProt P36941 31-227, limits assumed).
T4 construct: also called huLTβR:Fc; hu LTβR:Fc; not shown: Fc region of human IgG1
In words: SPR (BIAcore), receptor:Fc amine-coupled, LIGHT mutant as analyte 100-500 nM.

Assay [4] deals with B1. In words: SPR (BIAcore).
A further assay concerns the target T1, LTα homotrimer. The experiment in a line: precipitation of 35S-labeled secreted proteins, SDS-PAGE.
For assay [5], the target named is T5, p30 (LIGHT), the 30 kDa cell surface HVEM ligand of activated II-23.D7 cells and human T cells (human, UniProt O43557 1-240).
T5 construct: whole, on cells; Endogenous protein, tested on the cell surface in flow cytometry and from detergent extracts in precipitations; also called 30 kDa protein
In words: flow cytometry, saturation binding to activated II-23.D7 cells.

In a further assay the target is T6, TNF (UniProt P01375 77-233).
T6 construct: also called TNF (17 kDa)
In words: precipitation of 35S-labeled secreted proteins of II-23.D7 cells, SDS-PAGE.

The target of a further assay is T2, LTαTyr108Phe. The experiment in a line: competition for HVEM:Fc binding to II-23.D7 cells, flow cytometry (Figure 3).
Assay [6] has as its target B3. In words: SPR (BIAcore), receptor:Fc amine-coupled, LIGHT mutant as analyte 100-500 nM.
The target of assay [7] is B1. Described as above.
The target in assay [8] is B4. The experiment in a line: ELISA, receptor:Fc capture, anti-FLAG detection. On the technique in general: ELISA stands for enzyme-linked immunosorbent assay.
Assay [9] concerns the target B1. The experiment in a line: ELISA, receptor:Fc capture, anti-FLAG detection.
For assay [10], the target named is T3, LTα1β2 complex (LTβ 33 kDa and LTα …). The experiment in a line: precipitation with murine LTβR:Fc, 2D electrophoresis (Figure 4A).
For a further assay, the target named is T7, gD-1 (Δ290-299t) (herpes simplex virus type 1, UniProt Q69091 26-331).
T7 construct: also called gD-1 (Δ1290 - 299t)
In words: binding inhibition, flow cytometry.

For assay [11], the target named is T5, p30 (LIGHT), the 30 kDa cell surface …. In words: precipitation from detergent extracts of activated II-23.D7 cells; competition by flow cytometry.
For assay [12] the target is unchanged. In words: competition for HVEM:Fc binding to activated II-23.D7 cells, flow cytometry. In general terms: In flow cytometry, cells or beads pass a laser one at a time.

T4 sequence (P36941 31-227 limits assumed): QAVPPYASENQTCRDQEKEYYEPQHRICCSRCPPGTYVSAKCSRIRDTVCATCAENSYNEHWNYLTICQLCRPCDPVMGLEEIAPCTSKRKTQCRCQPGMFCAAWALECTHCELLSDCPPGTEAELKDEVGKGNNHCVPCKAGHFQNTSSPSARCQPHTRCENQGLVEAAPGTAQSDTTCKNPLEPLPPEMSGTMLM
T6 sequence (P01375 77-233 limits assumed): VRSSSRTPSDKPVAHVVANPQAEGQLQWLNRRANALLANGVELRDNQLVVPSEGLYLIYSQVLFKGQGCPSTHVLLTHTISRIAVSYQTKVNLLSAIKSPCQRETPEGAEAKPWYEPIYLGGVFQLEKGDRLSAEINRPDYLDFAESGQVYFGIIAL
T7 sequence (Q69091 26-314, tags or fused parts left off): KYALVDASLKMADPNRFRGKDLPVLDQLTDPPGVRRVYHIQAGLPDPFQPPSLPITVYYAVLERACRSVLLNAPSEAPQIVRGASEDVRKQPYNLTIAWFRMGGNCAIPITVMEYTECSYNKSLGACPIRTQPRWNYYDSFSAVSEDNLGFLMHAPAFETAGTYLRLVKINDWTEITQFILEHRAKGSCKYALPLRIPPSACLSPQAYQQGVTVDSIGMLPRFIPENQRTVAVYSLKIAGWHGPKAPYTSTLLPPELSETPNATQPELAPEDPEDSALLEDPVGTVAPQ

What is called Kd is the constant that tells how readily two partners part at equilibrium. Low values mean tighter binding, high ones weaker binding. As usually defined, the koff is the rate constant with which the complex falls apart. A higher koff goes with a short-lived complex. Broadly, the kon is a measure of how fast the partners come together. High values mean fast association, low ones slow association. With B1, the “fold lower affinity than LIGHT t66” value in [1] was greater than 40 fold. For the same molecule, in assay [2], the “fold induction of ICAM expression by NHDF cells (flow cytometry, 20 nM)” value came out at 2.5 fold. In addition, the binding result in assay [3] was “no binding”. In addition, in the assay with human LTβR:Fc, the equilibrium dissociation constant (Kd) is 0.031 µM, the off-rate constant (koff) came out at 0.0011 s⁻¹ and the kon turned out to be 37000 M⁻¹ s⁻¹.
What is called EC50 is the concentration at which the effect is half-maximal. Read a high EC50 as lower potency in that assay. Regarding B2, the dissociation constant Kd in [4] is 0.18 µM; in assay [6], 0.0003 µM; in [7], 0.173 µM. Moreover, the binding result with LTα homotrimer was “binds”; in the assay with TNF it was “no binding”; in the assay with LTαTyr108Phe it was “no binding”. The molecule further yielded an EC50 in assay [5] of roughly 0.02 µM. Further, the on-rate constant (kon) came to 20000 M⁻¹ s⁻¹ in assay [6] and 19000 M⁻¹ s⁻¹ in [7]. Further, the koff in assay [7] turned out to be 0.0033 s⁻¹.
In the assay with human LTβR:Fc, B3 gave an equilibrium dissociation constant (Kd) of 0.0015 µM and a koff of 4.5e-05 s⁻¹.
B4: the binding result in [3] was “binds”.
On to B5, for which the binding result in [8] was “binds”; in [9], “no binding”.
Consider B6, for which the binding result in [10] is listed as “binds”.
In the case of B7, the binding result (with gD-1 (Δ290-299t); in [11]) was “no binding” each time.
B8: the “fold decrease in relative anti-HCMV activity (against LTα and LIGHT)” value in assay [2] was roughly 10 fold.
B9: in assay [12], the binding result is reported as “no binding”.
